Source: the supplement of paper PMC10724198
± gives the standard deviation of the averaged measurements.

Assays:
Saccharomyces cerevisiae [1] = experiment: protein stability index of tFT-peptide fusion (C-terminal peptide) (PSI (0-1 scale)); higher = more stable (slower turnover)
Protocol: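 MPS profiling in S. cerevisiae of the tFT-X12 degron library: putative degron peptides plus stable controls, 12 aa, fused to the C-terminus of a sfGFP-mCherry timer. Cells are FACS-sorted into 8 mCherry/sfGFP bins and deep-sequenced. PSI runs from 0 (unstable) to 1 (stable). Backgrounds are wild type, das1Δ and doa10Δ at 30 °C, and wild type, das1Δ, cdc34-1 and cdc53-1 at 37 °C; 2-3 technical replicates each.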

Saccharomyces cerevisiae [2] = experiment: as above; conditions: genetic background: wild type; temperature: 30 C
[3] = genetic background: cdc34-1, temperature: 37 C
[4] = genetic background: cdc53-1, temperature: 37 C
[5] = genetic background: das1 deletion, temperature: 30 C
[6] = genetic background: das1 deletion, temperature: 37 C
[7] = genetic background: doa10 deletion, temperature: 30 C
[8] = genetic background: wild type, temperature: 30 C
[9] = genetic background: wild type, temperature: 37 C
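Further: PSI is a weighted mean of sequencing reads over stability bins, variants kept only with over 10 reads, mCherry proximal and sfGFP distal, peptide attached via GGGS linker.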

Sequence | protein stability index (Saccharomyces cerevisiae [1]; [3]) | protein stability index (Saccharomyces cerevisiae [1]; [4]) | protein stability index (Saccharomyces cerevisiae [1]; [5]) | protein stability index (Saccharomyces cerevisiae [1]; [6]) | protein stability index (Saccharomyces cerevisiae [1]; [7]) | protein stability index (Saccharomyces cerevisiae [1]; [8]) | protein stability index (Saccharomyces cerevisiae [1]; [9]) | protein stability index (Saccharomyces cerevisiae [2])
LNTVALIRIVVS | 0.0601 ± 0.033 | 0.132 ± 0.015 | 0.18 ± 0.021 | 0.234 ± 0.0055 | 0.125 ± 0.015 | 0.137 ± 0.036 | 0.19 ± 0.008 | 0.236 ± 0.006
RWVFAGVGLFVG | 0.691 ± 0.071 | 0.732 ± 0.016 | 0.605 ± 0.0071 | 0.7241 ± 0.0046 | 0.353 ± 0.043 | 0.376 ± 0.025 | 0.598 ± 0.024 | 0.502 ± 0.028
WFALFYFLVSAF | 0.189 ± 0.019 | 0.257 ± 0.01 | 0.205 ± 0.036 | 0.316 ± 0.0074 | 0.157 ± 0.008 | 0.187 ± 0.0045 | 0.254 ± 0.0038 | 0.266 ± 0.011
FLPSLSLPLLLF | 0.555 ± 0.0068 | 0.549 ± 0.02 | 0.425 ± 0.035 | 0.573 ± 0.015 | 0.376 ± 0.036 | 0.346 ± 0.017 | 0.479 ± 0.018 | 0.4318 ± 0.0012
MWFFFICYFLSV | 0.277 ± 0.0059 | 0.361 ± 0.034 | 0.246 ± 0.049 | 0.411 ± 0.015 | 0.262 ± 0.021 | 0.249 ± 0.02 | 0.369 ± 0.0076 | 0.263 ± 0.0072
FMRKLVVLVVLG | 0.257 ± 0.029 | 0.307 ± 0.013 | 0.222 ± 0.031 | 0.4342 ± 0.0023 | 0.1923 ± 0.0019 | 0.206 ± 0.028 | 0.417 ± 0.046 | 0.347 ± 0.089
FGGYLRAGVFLT | 0.643 ± 0.032 | 0.6969 ± 0.0015 | 0.645 ± 0.027 | 0.721 ± 0.0034 | 0.388 ± 0.039 | 0.387 ± 0.043 | 0.586 ± 0.016 | 0.473 ± 0.11
WFFRCLFLLSLF | 0.457 ± 0.0083 | 0.544 ± 0.028 | 0.517 ± 0.019 | 0.601 ± 0.011 | 0.188 ± 0.015 | 0.178 ± 0.026 | 0.23 ± 0.025 | 0.202 ± 0.034
LRPTFLLLFRPL | 0.292 ± 0.022 | 0.283 ± 0.037 | 0.377 ± 0.032 | 0.474 ± 0.011 | 0.618 ± 0.004 | 0.407 ± 0.017 | 0.4302 ± 0.0023 | 0.493 ± 0.096
DLRRYRTLIPCK | 0.38 ± 0.014 | 0.425 ± 0.023 | 0.288 ± 0.034 | 0.4805 ± 0.0034 | 0.2277 ± 0.00047 | 0.275 ± 0.048 | 0.481 ± 0.038 | 0.447 ± 0.034
RGCLVHSGFFIV | 0.65 ± 0.034 | 0.683 ± 0.011 | 0.62 ± 0.018 | 0.6898 ± 0.0051 | 0.212 ± 0.0034 | 0.239 ± 0.027 | 0.4987 ± 0.0029 | 0.401 ± 0.067
ACSRKPIWVTWL | 0.666 ± 0.057 | 0.747 ± 0.0079 | 0.648 ± 0.023 | 0.732 ± 0.016 | 0.259 ± 0.0057 | 0.276 ± 0.058 | 0.51 ± 0.031 | 0.35 ± 0.065
LVLLIQKFLTDK | 0.7442 ± 0.0063 | 0.7187 ± 0.0016 | 0.609 ± 0.024 | 0.695 ± 0.079 | 0.59 ± 0.017 | 0.617 ± 0.052 | 0.675 ± 0.015 | 0.553 ± 0.086
SVLVWFLVFLVW | 0.209 ± 0.0046 | 0.235 ± 0.02 | 0.223 ± 0.028 | 0.3733 ± 0.0037 | 0.218 ± 0.019 | 0.211 ± 0.026 | 0.321 ± 0.042 | 0.315 ± 0.012
SFSRLWSLFRCL | 0.462 ± 0.041 | 0.68 ± 0.026 | 0.682 ± 0.014 | 0.752 ± 0.014 | 0.15 ± 0.0057 | 0.13 ± 0.036 | 0.31 ± 0.038 | 0.244 ± 0.00058
PPSPAPLPDSLP | 0.662 ± 0.036 | 0.6995 ± 0.0011 | 0.684 ± 0.038 | 0.715 ± 0.017 | 0.693 ± 0.015 | 0.691 ± 0.021 | 0.696 ± 0.0075 | 0.7006 ± 0.0066
WYYTWKQLVMIV | 0.0845 ± 0.01 | 0.148 ± 0.0062 | 0.106 ± 0.023 | 0.186 ± 0.0072 | 0.0276 ± 0.0037 | 0.0263 ± 0.0054 | 0.0433 ± 0.021 | 0.0294 ± 0.022
SLRPFFPPLPRP | 0.631 ± 0.06 | 0.729 ± 0.0088 | 0.69 ± 0.033 | 0.7305 ± 0.0014 | 0.723 ± 0.026 | 0.702 ± 0.031 | 0.7187 ± 0.0031 | 0.666 ± 0.28
FYLSFWFLIFFF | 0.227 ± 0.011 | 0.251 ± 0.023 | 0.273 ± 0.031 | 0.353 ± 0.029 | 0.325 ± 0.036 | 0.215 ± 0.036 | 0.315 ± 0.017 | 0.312 ± 0.0092
RVFRLDRRLQVV | 0.55 ± 0.02 | 0.633 ± 0.041 | 0.509 ± 0.018 | 0.638 ± 0.012 | 0.128 ± 0.012 | 0.154 ± 0.018 | 0.213 ± 0.005 | 0.3 ± 0.0059

Sequence | protein stability index (Saccharomyces cerevisiae [1]; [3]) | protein stability index (Saccharomyces cerevisiae [1]; [4]) | protein stability index (Saccharomyces cerevisiae [1]; [5]) | protein stability index (Saccharomyces cerevisiae [1]; [6]) | protein stability index (Saccharomyces cerevisiae [1]; [7]) | protein stability index (Saccharomyces cerevisiae [1]; [8]) | protein stability index (Saccharomyces cerevisiae [1]; [9]) | protein stability index (Saccharomyces cerevisiae [2])
FWILLRVLIFVL | 0.176 ± 0.027 | 0.172 ± 0.0087 | 0.18 ± 0.033 | 0.321 ± 0.0095 | 0.182 ± 0.0047 | 0.175 ± 0.028 | 0.246 ± 0.03 | 0.266 ± 0.011
LLSYMVSLVVYL | 0.127 ± 0.04 | 0.231 ± 0.03 | 0.175 ± 0.032 | 0.338 ± 0.024 | 0.16 ± 0.028 | 0.166 ± 0.031 | 0.291 ± 0.004 | 0.295 ± 0.0062
LSACYSRYVFVS | 0.398 ± 0.039 | 0.553 ± 0.038 | 0.472 ± 0.016 | 0.60517 ± 0.00057 | 0.0584 ± 0.017 | 0.093 ± 0.023 | 0.115 ± 0.012 | 0.135 ± 0.0089
SVIVSSFFLWVF | 0.381 ± 0.051 | 0.454 ± 0.035 | 0.298 ± 0.03 | 0.482 ± 0.0072 | 0.2026 ± 0.00069 | 0.223 ± 0.029 | 0.426 ± 0.016 | 0.288 ± 0.019
VTRLLLSRIDCY | 0.437 ± 0.018 | 0.445 ± 0.0057 | 0.376 ± 0.028 | 0.501 ± 0.016 | 0.346 ± 0.011 | 0.367 ± 0.025 | 0.468 ± 0.022 | 0.445 ± 0.11
VTMTPSLCFSYS | 0.688 ± 0.017 | 0.684 ± 0.023 | 0.388 ± 0.029 | 0.668 ± 0.013 | 0.364 ± 0.0098 | 0.396 ± 0.01 | 0.632 ± 0.016 | 0.464 ± 0.018
FSFVVRMFFRIL | 0.218 ± 0.009 | 0.266 ± 0.0039 | 0.39 ± 0.038 | 0.408 ± 0.022 | 0.0869 ± 0.019 | 0.0811 ± 0.015 | 0.0988 ± 0.0082 | 0.154 ± 0.014
PWGSHLYYVVCI | 0.168 ± 0.026 | 0.228 ± 0.011 | 0.238 ± 0.03 | 0.3371 ± 0.0028 | 0.183 ± 0.013 | 0.221 ± 0.035 | 0.315 ± 0.016 | 0.339 ± 0.023
CVCPFCVWVSCL | 0.598 ± 0.066 | 0.744 ± 0.054 | 0.51 ± 0.027 | 0.752 ± 0.0091 | 0.242 ± 0.0047 | 0.263 ± 0.032 | 0.4205 ± 0.0029 | 0.433 ± 0.081
RKGQNKKRNKIY | 0.7504 ± 0.0028 | 0.767 ± 0.019 | 0.659 ± 0.008 | 0.7331 ± 0.0033 | 0.203 ± 0.028 | 0.295 ± 0.035 | 0.575 ± 0.044 | 0.399 ± 0.02
FLFSSLFCFLFL | 0.461 ± 0.035 | 0.428 ± 0.0099 | 0.474 ± 0.021 | 0.565 ± 0.029 | 0.571 ± 0.018 | 0.46 ± 0.018 | 0.527 ± 0.0061 | 0.433 ± 0.01
FLLYRFSLVGCF | 0.0567 ± 0.0082 | 0.108 ± 0.02 | 0.123 ± 0.031 | 0.194 ± 0.011 | 0.0828 ± 0.021 | 0.108 ± 0.032 | 0.189 ± 0.011 | 0.172 ± 0.026
YSIHYLRFFSLF | 0.4734 ± 0.00049 | 0.6669 ± 0.0066 | 0.6143 ± 0.0048 | 0.726 ± 0.014 | 0.0685 ± 0.011 | 0.0874 ± 0.015 | 0.0998 ± 0.011 | 0.133 ± 0.034
RKWLFFRSWRYV | 0.476 ± 0.047 | 0.69 ± 0.012 | 0.626 ± 0.028 | 0.7486 ± 0.0024 | 0.0555 ± 0.024 | 0.0663 ± 0.011 | 0.0912 ± 0.024 | 0.134 ± 0.002
VLFFCLVIYVGV | 0.187 ± 0.0071 | 0.23702 ± 9.6e-05 | 0.183 ± 0.015 | 0.29 ± 0.035 | 0.141 ± 0.015 | 0.187 ± 0.027 | 0.26 ± 0.0013 | 0.217 ± 0.018
CILYLSWIIFRA | 0.161 ± 0.037 | 0.192 ± 0.011 | 0.198 ± 0.041 | 0.343 ± 0.0091 | 0.213 ± 0.034 | 0.174 ± 0.028 | 0.334 ± 0.068 | 0.146 ± 0.026
CCVFFLLCLSLF | 0.419 ± 0.016 | 0.44 ± 0.024 | 0.341 ± 0.01 | 0.469 ± 0.023 | 0.353 ± 0.012 | 0.313 ± 0.0084 | 0.4223 ± 0.0038 | 0.354 ± 0.044
RLFSPPVLATPS | 0.654 ± 0.012 | 0.679 ± 0.025 | 0.525 ± 0.031 | 0.696 ± 0.021 | 0.51908 ± 0.00034 | 0.534 ± 0.019 | 0.6477 ± 0.0014 | 0.0111 ± 0.016
FYFMGFFFGLGM | 0.589 ± 0.021 | 0.627 ± 0.052 | 0.519 ± 0.047 | 0.617 ± 0.057 | 0.481 ± 0.016 | 0.504 ± 0.016 | 0.597 ± 0.023 | 0.516 ± 0.046
